In test [1] the target is cryptogein (wt cryptogein, Cry) (Phytophthora cryptogea, UniProt P15570). The test is described as follows: biochemical.
Test [2] deals with cryptogein (wt cryptogein, Cry) (Phytophthora cryptogea, UniProt P15570, L61F). The test is described as follows: biochemical.
Test [3] addresses high-affinity binding site on the tobacco plasma membrane (tobacco (endogenous in Xanthi cell suspension)). In words: filter binding of FITC-labelled ligand to plasma membrane preparations.

The record followed here is paper PMC3295402 (Journal of Experimental Botany, 2012).

For `CC(C)[C@@H](C)/C=C/[C@@H](C)[C@H]1CC[C@H]2C3=CC=C4C[C@@H](O)CC[C@]4(C)C3=CC[C@]12C` [DHE], the Kd in test [1] was determined as 560 ± 40 nM; in test [2] it was 850 ± 50 nM.

B1: wild type (wt) cryptogein (ligand)
chain: GTACTATQQTAAYKTLVSILSDASFNQCSTDSGYSMLTAKALPTTAQYKLMCASTACNTMIKKIVTLNPPNCDLTVPTSGLVLNVYSYANGFSNKCSSL
modifications: fluorescein isothiocyanate (FITC) label, site not stated
For B1, the amount of bound molecules at 10 nM (pmol mg^−1 plasma membrane proteins) in test [3] is 57.4.

B2: cryptogein Leu41Phe mutant (ligand)
chain: GTACTATQQTAAYKTLVSILSDASFNQCSTDSGYSMLTAKAFPTTAQYKLMCASTACNTMIKKIVTLNPPNCDLTVPTSGLVLNVYSYANGFSNKCSSL
modifications: fluorescein isothiocyanate (FITC) label, site not stated
B2: the amount of bound molecules at 30 nM (pmol mg^−1 plasma membrane proteins) in test [3] worked out at 14.4.

B3: cryptogein Val84Phe mutant (ligand)
chain: GTACTATQQTAAYKTLVSILSDASFNQCSTDSGYSMLTAKALPTTAQYKLMCASTACNTMIKKIFTLNPPNCDLTVPTSGLVLNVYSYANGFSNKCSSL
modifications: fluorescein isothiocyanate (FITC) label, site not stated
B3 gave an amount of bound molecules at 10 nM (pmol mg^−1 plasma membrane proteins) in test [3] of 55.3.

B4: cryptogein Leu41Phe/Val84Phe double mutant (ligand)
chain: GTACTATQQTAAYKTLVSILSDASFNQCSTDSGYSMLTAKAFPTTAQYKLMCASTACNTMIKKIVTLNPPNCDLTVPTSGLVLNFYSYANGFSNKCSSL
modifications: fluorescein isothiocyanate (FITC) label, site not stated
For B4, the amount of bound molecules at 30 nM (pmol mg^−1 plasma membrane proteins) in test [3] turned out to be 16.9.
